The values that follow come from US20140322216A1 (University of Pennsylvania, published 2014).

For assay [1], the target named is T1, full-length glycosylated recombinant hGPC3 protein expressed in a murine myeloma cell line (human, UniProt P51654 25-559, limits assumed).
T1 construct: Bought protein; also called rhGPC3; full length hGPC3 protein expressed by mammalian cells
Description: direct ELISA on rhGPC3 coated at 1 ug/ml. On the procedure:
(§1) FIG. 4A depicts the results of immunoblot analysis of binding of scFv to rhGPC3. The antigens including rhGPC3 and GST protein were spotted onto cellulose membrane (10 ng/each). After the blocking step the membrane were incubated with the scFvs antibody in room temperature for 1 h. The binding of scFv to antigen was detected by incubation with mouse anti-V5 mAb following by infrared dye IR680-labeled anti-mouse antibodies. PBS was used as negative control. FIG. 4B depicts results of direct ELISA for affinity determination of scFv 3E11. Two different concentrations of rhGPC3 protein (0.5 and 1.0 ug/ml) were coated and incubated with serial diluted scFv 3E11. For detection, mouse-sourced anti-V5 mAb following HRP-conjugated anti-mouse antibody and SureBlue substrate (measured at 450 nm) was used. FIG. 4C depicts EC50 values for 5 candidate scFvs determined by direct ELISA, Assays were performed twice separately for each scFv.
(§2) After three washing steps with PBS/0.1% Tween-20 (PBST), 300 ul per well of blocking solution (2% milk in PBS pH 7) was added for 2 h at room temperature then washed three tinmes with PBST. Candidate scFv starting at 100 ug/ml were added with serial dilutions, incubated for Ih at room temperature followed by three washing steps with PBST, scFv binding was detected by adding anti-V5 HRP (Invitrmgen), washing ×4 with PBST, washing ×1 with PBS, then adding 50 ul/well of TMB peroxidase substrate (KPL, Gaithersburg Md.) plus peroxidase substrate solution B at 1:1 ratio, then the reaction was stopped using 50 ul of 0.5M H₂SO₄. OD450 was measured using a BioRad 680 microplate reader. For determination of functional affinity, half maximal binding concentration (EC50) was calculated with non-linear regression curve fit algorithm using the software program PRISM (GraphPad Software, San Diego, Calif.). rhGPC3 expressed in a murine myeloma cell line which was commercially obtained from R&D Systems (Minneapolis Minn.).

Assay [2] addresses T1, full-length glycosylated recombinant …. Nature of the assay: direct ELISA on rhGPC3 coated at 0.5 ug/ml. On the procedure:
as §1, §2

For assay [3] the target is unchanged. Description: direct ELISA on rhGPC3, lower coat (open circles; key prints '0.5mg/ml', legend says 0.5 ug/ml). As for the experimental part:
as §1
(§3) After three washing steps with PBS/0.1% Tween-20 (PBST), 300 ul per well of blocking solution (2% milk in PBS pH 7) was added for 2 h at room temperature then washed three tinmes with PBST. […] OD450 was measured using a BioRad 680 microplate reader. […]

For assay [4] the target is unchanged. Nature of the assay: direct ELISA, rhGPC3 coated at 1 ug/ml; rhGPC3 at 1 ug/ml. As for the experimental part: as §1, §3
For assay [5] the target is unchanged. Description: ELISA on rhGPC3 precoated at 1 ug/ml; drawn table headed 'Table 1. Kd of scFv candidates', column EC50 (nM).
The target is the same in assay [6]. Nature of the assay: direct ELISA, rhGPC3 coated at 0.5 ug/ml; rhGPC3 at 0.5 ug/ml. As for the experimental part:
as §1, §3

The target of the next assay is GST protein (UniProt P08515 1-218 = GST). Description: dot blot, 10 ng GST per spot, scFv detected with anti-V5 mAb and IR680 anti-mouse. On the procedure:
as §1

T1 sequence (P51654 25-559 limits assumed): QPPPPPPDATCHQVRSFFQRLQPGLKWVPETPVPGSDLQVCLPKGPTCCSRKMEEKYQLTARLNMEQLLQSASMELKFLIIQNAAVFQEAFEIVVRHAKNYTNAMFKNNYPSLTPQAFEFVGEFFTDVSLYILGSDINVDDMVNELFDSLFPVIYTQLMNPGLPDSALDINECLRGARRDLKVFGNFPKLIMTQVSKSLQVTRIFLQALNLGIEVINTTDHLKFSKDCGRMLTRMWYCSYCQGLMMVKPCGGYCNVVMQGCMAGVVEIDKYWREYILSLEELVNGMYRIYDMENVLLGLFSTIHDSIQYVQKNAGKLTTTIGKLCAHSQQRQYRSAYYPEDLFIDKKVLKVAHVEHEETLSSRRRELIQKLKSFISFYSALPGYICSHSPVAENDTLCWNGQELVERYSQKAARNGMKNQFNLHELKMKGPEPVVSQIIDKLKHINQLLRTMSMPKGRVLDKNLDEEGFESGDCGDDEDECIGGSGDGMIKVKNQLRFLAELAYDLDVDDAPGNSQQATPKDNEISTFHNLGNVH
Sequence of GST protein (P08515 whole entry): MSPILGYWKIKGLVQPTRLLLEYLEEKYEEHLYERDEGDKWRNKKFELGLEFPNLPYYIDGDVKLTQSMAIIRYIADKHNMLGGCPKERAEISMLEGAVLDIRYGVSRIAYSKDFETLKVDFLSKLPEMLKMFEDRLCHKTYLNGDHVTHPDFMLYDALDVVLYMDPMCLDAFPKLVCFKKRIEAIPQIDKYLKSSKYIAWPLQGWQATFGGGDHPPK

B1: scFv 3D8 (scFv, V domains shown)
VH: QVQLVQSGGGLAQPGGSLRLSCAASGSSFSTFVLSWVRQTPGKGLQWVSTISGSGTSTYYADSVKGRFTVSRDNAKNTQYLQMNSLRAEDTAIYYCARHKSFGVQWLWGQGALVVRLL
VL: VHIVMTQSPLSLPVTLGQPASISCWSSQSLVYGDGNTYLNWFQQRPGQSPRRLIYKVSNRDSGVPDRFSGSGSGTDFTLKISRVEAEDVGVYYCMQGTHWPPGTFGGGTKLEIK
notes: Human scFv secreted by yeast, one polypeptide with His and V5 tags
In the case of B1, the EC50 in assay [1] was 94.7 nM; in assay [2], 106 nM.

B2: scFv 3E11 (scFv, V domains shown)
VH: QVQLVQSGGGVVQPGRSLRLSCAASGFTFSSYGLHWVRQAPGKGLEWVAAISYDGSKKYYADSVKGRLTISRDNSKNTLYLQMNSLSPEDTALYFCARGWFVEPLSWGQGTLVTVSS
VL: not shown
notes: Human scFv secreted by yeast (p416-BCCR vector), one polypeptide; purified on nickel/anti-HIS and detected with anti-V5, so it carries His and V5 tags
With B2, in assay [3], the “EC50 (read off the curve)” value was around 10 nM. The 50% effective concentration (EC50) stood at 14 nM in assay [4]; 12 nM in assay [5]; 11.1 nM in assay [1]; 12 nM in assay [2]; 11 nM in assay [6]. Besides, the binding result with GST protein was “no binding”.

B3: scFv 4G5 (scFv, V domains shown)
VH: QVQLQESGLGLVKPSETLSLTCAVSGYSITSGYYWGWIRQTPGKGLEWIGRIYYGGSTHYNPSLQSRVTISVDTAKNQFSLKLSSVTAADTAVYYCARDRNYQSLSGYCLDYWGQGKVVTVSS
VL: EIVLTQSPGTLSVSPGERATLSCRASQSVSSHIAWYQQKPGQAPRLLIHGASTRATGVPARFSGSGSGTEFTLTISSLQSEDFAVYYCQQYNKWPPEYTFGQGTKLEIK
notes: as for B1
On to B3, for which, in assay [2], the concentration giving a half-maximal response (EC50) came out at 38.8 nM. Further, the binding result with GST protein is “no binding”.

B4: scFv 2G9 (scFv, V domains shown)
VH: QVQLQESGPGLVKPSETLSLSCTVSGGSISSSSYYWAWIRQPPGKGLEWIGNIYYSGSTYYNPSLKSRVTISVDTSKNQFSLKLSSVTAADTAVYYCARFPLIRGYRYRYDEYWGQGTLVTVSS
VL: DIVMTQSPLSLPVTPGEAASISCRSSQSLLHRDGYHYLNWFLQKPGQSPQLLIYLGSNRASGVPDRFSGSGSGTDFTLKISRVEAEDVGVYYCMQAPQTPRTLLGQGTKLEIK
notes: as for B1
Turning to B4, in assay [1], the concentration for a half-maximal effect (EC50) worked out at 111 nM. The binding result with GST protein is reported as “no binding”.
